Laboratory results: PMC7822592, “The half-life of the bone-derived hormone osteocalcin is regulated through O-glycosylation in mice, but not in humans” (eLife, 2020)
No end group written: not given here. O‑glycan = not defined here

Assays:
INS-1 832/3 cells [1] = experiment: OCN stability in INS-1 832/3 cell culture media; type: in vitro ADME, rat; conditions: 8 hours at 4°C without cells, ELISA
INS-1 832/3 cells [2] = experiment: Ins1 gene expression in INS-1 832/3 cells treated with ucOCN; type: cell-based, rat; conditions: 8 hr; for Ins1 gene expression (Fold change relative to vehicle): qPCR
Description: (§1) The INS-1 832/3 rat insulinoma cell line (Millipore-Sigma) was cultured in RPMI-1640 with 11.1 mM D-glucose, supplemented with 2 mM L-glutamine, 1 mM sodium pyruvate, 10 mM HEPES, 0.05 mM β-mercaptoethanol and 10% FBS ([Hohmeier et al., 2000]). On day 1, cells were plated at 3 × 10^5 cells per well in 12-well plates and on day 5, cells were washed with PBS and incubated with culture media containing 5 mM D-glucose. Twenty-four hours later, cells were washed with PBS and incubated for 4 hr in culture media containing 1% FBS, 5 mM D-glucose and 0.1% BSA. OCN was added for 8 hr before supernatants and cells were harvested. ucOCN and O-gly ucOCN concentration were measured in supernatants by ELISA and cells were lyzed and RNA extracted as described in the material and methods section. Gene expression was analyzed using rat specific primers for Ins1 and Gapdh.

INS-1 832/3 cells [3] = experiment: OCN stability in INS-1 832/3 cell culture media; type: in vitro ADME, rat; conditions: 8 hours with INS-1 cells at 37°C, ELISA
Description: as §1

human plasmin = target: T1, human plasmin (Homo sapiens, UniProt P00747); experiment: Plasmin enzymatic assay on OCN in heat-inactivated plasma; type: in vitro ADME; conditions: for % OCN from initial: heat-inactivated Bglap-/- plasma diluted two times in 100 mM Tris pH 7.5, 50 ng/ml, ELISA; for % OCN from initial / % OCN from initial in plasmin (0.3 U/ml): 2hrs, 37°C; for % OCN from initial in plasmin (0.3 U/ml): inset graph, heat-inactivated Bglap-/- plasma, 50 ng/ml
T1 construct: different concentration of human plasmin (Sigma); purchased Sigma P1867
Description: The plasmin enzymatic assay was performed on plasma ex vivo in the presence of non-glycosylated OCN and glycosylated OCN as follows: plasma from Bglap-/- mice was heat-inactivated for 30 min at 56°C, then diluted two times in the enzyme assay buffer containing 100 mM Tris buffer pH 7.5. Non-glycosylated OCN or glycosylated OCN was incubated at 50 ng/ml in the diluted plasma for two hours in the presence of different concentration of human plasmin (Sigma) ranging from 0 to 0.3 U/ml. After two hours, OCN level was measured using total mouse OCN ELISA. Results are represented as percentage of initial concentration of non-glycosylated and glycosylated OCN respectively.

[4] = plasmin 0.024 U/ml, replicate 1
[5] = plasmin 0.024 U/ml, replicate 2

T1 sequence (P00747 581-810 limits assumed): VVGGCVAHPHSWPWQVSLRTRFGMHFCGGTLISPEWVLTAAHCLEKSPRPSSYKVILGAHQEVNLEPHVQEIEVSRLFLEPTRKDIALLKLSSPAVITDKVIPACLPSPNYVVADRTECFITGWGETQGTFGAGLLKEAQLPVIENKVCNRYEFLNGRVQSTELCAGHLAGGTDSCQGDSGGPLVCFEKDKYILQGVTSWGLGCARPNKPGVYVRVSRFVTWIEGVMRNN
T1 sequence (P00747 97-580 partner limits assumed): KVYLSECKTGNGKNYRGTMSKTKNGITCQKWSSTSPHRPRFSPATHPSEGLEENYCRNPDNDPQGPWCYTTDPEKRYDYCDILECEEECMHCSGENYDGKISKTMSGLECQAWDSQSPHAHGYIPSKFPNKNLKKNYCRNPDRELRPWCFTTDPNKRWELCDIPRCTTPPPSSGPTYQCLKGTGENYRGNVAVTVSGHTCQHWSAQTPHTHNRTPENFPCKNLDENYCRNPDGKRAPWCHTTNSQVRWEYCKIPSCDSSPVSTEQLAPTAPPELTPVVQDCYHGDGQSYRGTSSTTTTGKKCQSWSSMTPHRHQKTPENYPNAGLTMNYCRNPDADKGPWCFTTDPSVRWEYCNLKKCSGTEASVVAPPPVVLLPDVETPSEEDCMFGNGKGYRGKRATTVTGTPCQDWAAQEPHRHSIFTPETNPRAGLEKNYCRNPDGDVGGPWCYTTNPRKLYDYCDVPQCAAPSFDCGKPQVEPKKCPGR

Row | Substance | OCN in stimulation media (INS-1 832/3 cells [1]; replicate 1) [ng/mL] | OCN in stimulation media (INS-1 832/3 cells [1]; replicate 2) [ng/mL] | OCN in stimulation media (INS-1 832/3 cells [1]; replicate 3) [ng/mL] | Ins1 gene expression (Fold change relative to vehicle) (INS-1 832/3 cells [2]; 0.3 ng/mL, replicate 1) [Fold change] | Ins1 gene expression (Fold change relative to vehicle) (INS-1 832/3 cells [2]; 0.3 ng/mL, replicate 2) [Fold change] | Ins1 gene expression (Fold change relative to vehicle) (INS-1 832/3 cells [2]; 0.3 ng/mL, replicate 3) [Fold change] | Ins1 gene expression (Fold change relative to vehicle) (INS-1 832/3 cells [2]; 0.3 ng/mL, replicate 4) [Fold change] | Ins1 gene expression (Fold change relative to vehicle) (INS-1 832/3 cells [2]; 0.3 ng/mL, replicate 5) [Fold change] | Ins1 gene expression (Fold change relative to vehicle) (INS-1 832/3 cells [2]; 0.3 ng/mL, replicate 6) [Fold change] | Ins1 gene expression (Fold change relative to vehicle) (INS-1 832/3 cells [2]; 0.3 ng/mL, replicate 7) [Fold change] | Ins1 gene expression (Fold change relative to vehicle) (INS-1 832/3 cells [2]; 0.3 ng/mL, replicate 8) [Fold change] | Ins1 gene expression (Fold change relative to vehicle) (INS-1 832/3 cells [2]; 0.3 ng/mL, replicate 9) [Fold change] | Ins1 gene expression (Fold change relative to vehicle) (INS-1 832/3 cells [2]; 0.3 ng/mL, replicate 10) [Fold change] | OCN in stimulation media (INS-1 832/3 cells [3]; replicate 1) [ng/mL] | OCN in stimulation media (INS-1 832/3 cells [3]; replicate 2) [ng/mL] | OCN in stimulation media (INS-1 832/3 cells [3]; replicate 3) [ng/mL] | % OCN from initial (human plasmin; plasmin 0 U/ml, replicate 1) [%] | % OCN from initial (human plasmin; plasmin 0 U/ml, replicate 2) [%] | % OCN from initial (human plasmin; [4]) [%] | % OCN from initial (human plasmin; [5]) [%] | also measured
1 | O-gly ucOCN: O-glycosylated uncarboxylated mouse osteocalcin produced and purified from HEK293 as Fc fusion, released by thrombin (YLGASVPS(O‑glycan)PDPLEPTREQCELNPACDELSDQYGLKTAYKRIYGITI; ends and bridges not checked; also: O-glycosylated (HexNAc, Hex, NANA); UniProt P86546 50-95, looked up) | 0.15 | 0.15 | 0.14 | 0.562 | 1.1 | 1.1 | 12.1 | 2.0 | 8.6 | 2.7 | 4.9 | 2.3 | 0.7 | 0.12 | 0.13 | 0.13 | 96.7 | 103.3 | 81.4 | 86.9 | Ins1 gene expression (Fold change relative to vehicle) (INS-1 832/3 cells [2]; 0.1 ng/mL, replicate 1): 2.4 Fold change; Ins1 gene expression (Fold change relative to vehicle) (INS-1 832/3 cells [2]; 0.1 ng/mL, replicate 2): 1.6 Fold change; Ins1 gene expression (Fold change relative to vehicle) (INS-1 832/3 cells [2]; 0.1 ng/mL, replicate 3): 2.2 Fold change; Ins1 gene expression (Fold change relative to vehicle) (INS-1 832/3 cells [2]; 0.1 ng/mL, replicate 4): 2.6 Fold change; Ins1 gene expression (Fold change relative to vehicle) (INS-1 832/3 cells [2]; 0.1 ng/mL, replicate 5): 3.1 Fold change; Ins1 gene expression (Fold change relative to vehicle) (INS-1 832/3 cells [2]; 0.1 ng/mL, replicate 6): 3.0 Fold change; Ins1 gene expression (Fold change relative to vehicle) (INS-1 832/3 cells [2]; 0.1 ng/mL, replicate 7): 4.2 Fold change; Ins1 gene expression (Fold change relative to vehicle) (INS-1 832/3 cells [2]; 0.1 ng/mL, replicate 8): 2.7 Fold change; % OCN from initial (human plasmin; plasmin 0.12 U/ml, replicate 1): 63.3%; % OCN from initial (human plasmin; plasmin 0.12 U/ml, replicate 2): 75.7%; % OCN from initial (human plasmin; plasmin 0.3 U/ml, replicate 1): 34.5%; % OCN from initial (human plasmin; plasmin 0.3 U/ml, replicate 2): 40.8%; % OCN from initial in plasmin (0.3 U/ml) (human plasmin; replicate 1): 34.5%; % OCN from initial in plasmin (0.3 U/ml) (human plasmin; replicate 2): 40.8%; % OCN from initial in plasmin (0.3 U/ml) (human plasmin; replicate 3): 32.1%; % OCN from initial in plasmin (0.3 U/ml) (human plasmin; replicate 4): 27.0%; % OCN from initial in plasmin (0.3 U/ml) (human plasmin; replicate 5): 38.6%
2 | ucOCN: Non-glycosylated uncarboxylated mouse osteocalcin produced in bacteria (YLGASVPSPDPLEPTREQCELNPACDELSDQYGLKTAYKRIYGITI; ends and bridges not checked; cysteine pairing not given here; UniProt P86546 50-95, looked up) | 0.15 | 0.18 | 0.17 | 0.663 | 1.9 | 0.6 | 1.4 | 0.337 | 0.4 | 2.7 | 3.6 | 2.4 | 1.3 | 0.037 | 0.028 | 0.03 | 91.2 | 108.8 | 69.0 | 80.5 | Ins1 expression increase (INS-1 832/3 cells [2]; 0.3 ng/ml, quantitative PCR): 1.5 fold; % OCN from initial (human plasmin; plasmin 0.12 U/ml, replicate 1): 38.3%; % OCN from initial (human plasmin; plasmin 0.12 U/ml, replicate 2): 44.1%; % OCN from initial (human plasmin; plasmin 0.3 U/ml, replicate 1): 11.5%; % OCN from initial (human plasmin; plasmin 0.3 U/ml, replicate 2): 15.5%; % OCN from initial in plasmin (0.3 U/ml) (human plasmin; replicate 1): 11.5%; % OCN from initial in plasmin (0.3 U/ml) (human plasmin; replicate 2): 15.5%; % OCN from initial in plasmin (0.3 U/ml) (human plasmin; replicate 3): 12.3%; % OCN from initial in plasmin (0.3 U/ml) (human plasmin; replicate 4): 11.4%; % OCN from initial in plasmin (0.3 U/ml) (human plasmin; replicate 5): 9.9%; reduction of concentration by plasmin (human plasmin; two hours): more than 90%
